{"source": "paper PMC13544220", "about": "“Glycemic and bodyweight effects of GIPR coding variation reflect differences in surface expression and intrinsic functional impairment” (Science Advances, 2026)", "format_in_all_cases": "cell-based, human", "key": {"[1]": {"tested_on": "wild-type and variant SNAP-GIPR", "test": "Single-concentration GIP cAMP response by HTRF in AD293 cells;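 also: ratio to experiment-wide average response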", "conditions": "Fig S3F, HTRF, mean", "method": "All variants were tested in parallel on each occasion to control for transfection efficiency differences between experiments."}, "[2]": {"tested_on": "wild-type and variant SNAP-GIPR", "test": "cADDis cAMP imaging in AD293 cells, ensemble, expression-matched and per decile", "conditions": "Fig S3F, cADDis, mean", "summary_of_the_method": "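Transient SNAP-GIPR plus cADDis BacMam in AD293; 24 h; SNAP-Surface AF647 500 nM, 10 min RT; wide-field 10X imaging at 37°C in KRBH/6 mM glucose/0.1% BSA. Cells failing IBMX/FSK response criteria excluded.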"}, "[3]": {"tested_on": "wild-type and variant SNAP-GIPR", "test": "Constitutive and agonist-mediated internalization, reversible SNAP-tag labelling, AD293 cells", "set-up": "key to Internalisation, Vehicle / Internalisation, +GIP / Internalisation, GIP-only: % internalization: residual fluorescence after Mesna vs pre-Mesna; Surface expression: unit not given here", "conditions": "Mean", "summary_of_the_method": "(§1)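 Surface SNAP-GIPR signal removable by Mesna was tracked by imaging before and 10 min after treatment in pH 8.6 TNE buffer. Internalization is the Mesna-resistant share of specific fluorescence.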"}, "[4]": {"tested_on": "wild-type and variant SNAP-GIPR", "test": "Constitutive and agonist-mediated internalization, reversible SNAP-tag labelling, INS-1 cells", "set-up": "key to Internalisation, GIP-only / Internalisation, Vehicle / Internalisation, +GIP: % internalization: residual fluorescence after Mesna vs pre-Mesna", "conditions": "Mean", "summary_of_the_method": "as §1"}, "[5]": {"tested_on": "wild-type and variant SNAP-GIPR in Gipr-/- mouse islets", "test": "Surface SNAP-GIPR expression in pancreatic islets", "conditions": "Fig 6B", "method": "Islets were purified from Gipr^−/− mice as described in the “Islet isolation and culture” section. Islets were transduced with adenoviral wild-type or variant SNAP-tagged GIPR constructs (VectorBuilder) per the manufacturer’s instructions. All variants were tested in parallel on each occasion to control for transduction efficiency. Twenty-four hours posttransduction, whole, intact islets were labeled with SNAP-Surface Alexa Fluor 647 for 15 min at 37°C. Following labeling, the islets were placed in a drop of PBS in the center of a glass-bottom MatTek dish and imaged on a Zeiss LSM 780 inverted confocal microscope fitted with a 63X/1.4 NA oil immersion objective. Receptor surface levels were quantified in Fiji using a macro using full width at half maximum (FWHM) designed by the Facility for Imaging and Light Microscopy (FILM) at Imperial College London and expressed relative to wild-type GIPR. In additional experiments, islets transduced as above and labeled with SNAP-Surface-647 were fixed in 4% paraformaldehyde, permeabilized in 0.5% (v/v) Triton X-100 in PBS (15 min), washed once with PBS and incubated in blocking buffer (PBS and 1% BSA) for 1 hour, and incubated overnight at 4°C in primary antibodies against insulin (1:50; Dako IR002, Agilent Technologies) and glucagon (1:500; G2654, Sigma-Aldrich) in blocking buffer."}}, "data": [{"molecule": "E288G (protein) RAETGSKGQTAGELYQRWERYRRECQETLAAAEPPSGLACNGSFDMYVCWDYAAPNATARASCPWYLPWHHHVAAGFVLRQCGSDGQWGLWRDHTQCENPEKNEAFLDQRLILERLQVMYTVGYSLSLATLLLALLILSLFRRLHCTRNYIHINLFTSFMLRAAAILSRDRLLPRPGPYLGDQALALWNQALAACRTAQIVTQYCVGANYTWLLVEGVYLHSLLVLVGGSEEGHFRYYLLLGWGAPALFVIPWVIVRYLYENTQCWGRNEVKAIWWIIRTPILMTILINFLIFIRILGILLSKLRTRQMRCRDYRLRLARSTLTLVPLLGVHEVVFAPVTEEQARGALRFAKLGFEIFLSSFQGFLVSVLYCFINKEVQSEIRRGWHHCRLRRSLGEEQRQLPERAFRALPSGSGPGEVPTSRGLSSGTLPGPGNEASRELESYC", "values": [{"measurement": "AD293 100 pM HTRF", "setting": "[1]; AD293, 100 pM", "result": 0.007216}, {"measurement": "AD293 100 nM HTRF", "setting": "[1]; AD293, 100 nM", "result": 0.3648}, {"measurement": "AD293 100 pM cADDis", "setting": "[2]; AD293, 100 pM", "result": 0.802}, {"measurement": "AD293 100 nM cADDis", "setting": "[2]; AD293, 100 nM", "result": 24.23}, {"measurement": "+GIP internalisation (100 nM)", "setting": "[3]; Fig 4E, GIP 100 nM", "result": 0.06598}, {"measurement": "GIP-specific internalisation (100 nM)", "setting": "[3]; Fig 4E, GIP 100 nM", "result": 0.002144}, {"measurement": "Constitutive internalisation (100 nM)", "setting": "[3]; Fig 4E", "result": 0.06383}, {"measurement": "Surface expression", "setting": "[3]; Fig 4E", "result": 0.1099}, {"measurement": "Internalisation, +GIP", "setting": "[3]; Fig S4C, AD293", "result": 59.0204}, {"measurement": "Internalisation, GIP-only", "setting": "[3]; Fig S4C, AD293", "result": 2.581}, {"measurement": "Internalisation, Vehicle", "setting": "[3]; Fig S4C, AD293", "result": 56.4393}, {"measurement": "+GIP internalisation (100 nM)", "setting": "[4]; Fig 4G, GIP 100 nM", "result": 0.1101}, {"measurement": "GIP-specific internalisation (100 nM)", "setting": "[4]; Fig 4G, GIP 100 nM", "result": 0.004755}, {"measurement": "Constitutive internalisation (100 nM)", "setting": "[4]; Fig 4G", "result": 0.1053}, {"measurement": "Internalisation, +GIP", "setting": "[4]; Fig S4C, INS-1", "result": 49.4833}, {"measurement": "Internalisation, GIP-only", "setting": "[4]; Fig S4C, INS-1", "result": 2.12}, {"measurement": "Internalisation, Vehicle", "setting": "[4]; Fig S4C, INS-1", "result": 47.3633}, {"measurement": "Surface SNAP-GIPR expression in pancreatic islets", "setting": "[5]; replicate 1", "result": 0.1066}, {"measurement": "Surface SNAP-GIPR expression in pancreatic islets", "setting": "[5]; replicate 2", "result": 0.6008}, {"measurement": "Surface SNAP-GIPR expression in pancreatic islets", "setting": "[5]; replicate 3", "result": 0.01404}, {"measurement": "Surface SNAP-GIPR expression in pancreatic islets", "setting": "[5]; replicate 4", "result": -0.2745}, {"measurement": "Surface SNAP-GIPR expression in pancreatic islets", "setting": "[5]; replicate 5", "result": -0.1674}]}]}
